Measurements as given in publication PMC2171315 (The Journal of Cell Biology, 2005).

Molecular target: GST-Nup2p (S. cerevisiae, UniProt P32499 1-720)
Experiment: pull-down

Chain of GST-Nup2p (P32499 whole entry): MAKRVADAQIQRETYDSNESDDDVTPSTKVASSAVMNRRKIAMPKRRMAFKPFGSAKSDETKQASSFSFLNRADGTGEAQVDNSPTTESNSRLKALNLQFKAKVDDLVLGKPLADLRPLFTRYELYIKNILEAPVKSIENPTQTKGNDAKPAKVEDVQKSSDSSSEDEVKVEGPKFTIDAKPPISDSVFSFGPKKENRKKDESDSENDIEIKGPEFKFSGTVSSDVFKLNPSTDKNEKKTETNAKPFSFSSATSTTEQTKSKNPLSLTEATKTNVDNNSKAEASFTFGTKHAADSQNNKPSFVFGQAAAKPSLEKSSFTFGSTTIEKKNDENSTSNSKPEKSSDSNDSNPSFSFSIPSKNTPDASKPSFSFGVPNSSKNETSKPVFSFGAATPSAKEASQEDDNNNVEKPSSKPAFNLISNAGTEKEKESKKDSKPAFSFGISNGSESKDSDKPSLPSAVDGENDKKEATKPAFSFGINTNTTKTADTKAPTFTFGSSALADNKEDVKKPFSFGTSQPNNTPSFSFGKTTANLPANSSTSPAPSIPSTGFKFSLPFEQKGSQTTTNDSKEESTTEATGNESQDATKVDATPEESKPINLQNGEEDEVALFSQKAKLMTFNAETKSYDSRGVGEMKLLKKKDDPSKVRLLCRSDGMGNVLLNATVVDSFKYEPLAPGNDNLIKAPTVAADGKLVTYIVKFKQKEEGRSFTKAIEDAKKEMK

B1: Bacterially expressed and purified Prp20p (natural protein)
chain: MVKRTVATNGDASGAHRAKKMSKTHASHIINAQEDYKHMYLSVQPLDIFCWGTGSMCELGLGPLAKNKEVKRPRLNPFLPRDEAKIISFAVGGMHTLALDEESNVWSWGCNDVGALGRDTSNAKEQLKDMDADDSSDDEDGDLNELESTPAKIPRESFPPLAEGHKVVQLAATDNMSCALFSNGEVYAWGTFRCNEGILGFYQDKIKIQKTPWKVPTFSKYNIVQLAPGKDHILFLDEEGMVFAWGNGQQNQLGRKVMERFRLKTLDPRPFGLRHVKYIASGENHCFALTKDNKLVSWGLNQFGQCGVSEDVEDGALVTKPKRLALPDNVVIRSIAAGEHHSLILSQDGDLYSCGRLDMFEVGIPKDNLPEYTYKDVHGKARAVPLPTKLNNVPKFKSVAAGSHHSVAVAQNGIAYSWGFGETYAVGLGPFEDDTEVPTRIKNTATQDHNIILVGCGGQFSVSGGVKLSDEDAEKRADEMDD
B1: binds.
